Experimental data from paper PMC11429872 (bioRxiv, 2024).
Where a chain is given by its changes, count along the chain named. In names and notes the source's numbering stands.

B1: β-III-spectrin-FLAG fragment (amino acids 1-1066), wild-type (domain or fragment)
chain: MSSTLSPTDFDSLEIQGQYSDINNRWDLPDSDWDNDSSSARLFERSRIKALADEREAVQKKTFTKWVNSHLARVTCRVGDLYSDLRDGRNLLRLLEVLSGEILPKPTKGRMRIHCLENVDKALQFLKEQKVHLENMGSHDIVDGNHRLTLGLVWTIILRFQIQDISVETEDNKEKKSAKDALLLWCQMKTAGYPNVNVHNFTTSWRDGLAFNAIVHKHRPDLLDFESLKKCNAHYNLQNAFNLAEKELGLTKLLDPEDVNVDQPDEKSIITYVATYYHYFSKMKALAVEGKRIGKVLDHAMEAERLVEKYESLASELLQWIEQTIVTLNDRQLANSLSGVQNQLQSFNSYRTVEKPPKFTEKGNLEVLLFTIQSKLRANNQKVYTPREGRLISDINKAWERLEKAEHERELALRTELIRQEKLEQLAARFDRKAAMRETWLSENQRLVSQDNFGLELAAVEAAVRKHEAIETDIVAYSGRVQAVDAVAAELAAERYHDIKRIAARQHNVARLWDFLRQMVAARRERLLLNLELQKVFQDLLYLMDWMEEMKGRLQSQDLGRHLAGVEDLLQLHELVEADIAVQAERVRAVSASALRFCNPGKEYRPCDPQLVSERVAKLEQSYEALCELAAARRARLEESRRLWRFLWEVGEAEAWVREQQHLLASADTGRDLTGALRLLNKHTALRGEMSGRLGPLKLTLEQGQQLVAEGHPGASQASARAAELQAQWERLEALAEERAQRLAQAASLYQFQADANDMEAWLVDALRLVSSPELGHDEFSTQALARQHRALEEEIRSHRPTLDALREQAAALPPTLSRTPEVQSRVPTLERHYEELQARAGERARALEAALALYTMLSEAGACGLWVEEKEQWLNGLALPERLEDLEVVQQRFETLEPEMNTLAAQITAVNDIAEQLLKANPPGKDRIVNTQEQLNHRWQQFRRLADGKKAALTSALSIQNYHLECTETQAWMREKTKVIESTQGLGNDLAGVLALQRKLAGTERDLEAIAARVGELTREANALAAGHPAQAVAINARLREVQTGWEDLRATMRRREESLGEARR
B2: β-III-spectrin-FLAG fragment (amino acids 1-1066), R480W (domain or fragment)
chain: B1 chain with R480W

Target: F-actin (rabbit, UniProt P68135 1-377)
Assay: co-sedimentation

| Binder | Kd |
| --- | --- |
| B1 | 24.6 ± 12 µM |
| B2 | 34.9 ± 14.4 µM |
